Data taken from PMC2921000 (Nature, 2010).

Biological target: T1, Spc98p (Saccharomyces cerevisiae, UniProt P53540 1-846)
T1 sequence: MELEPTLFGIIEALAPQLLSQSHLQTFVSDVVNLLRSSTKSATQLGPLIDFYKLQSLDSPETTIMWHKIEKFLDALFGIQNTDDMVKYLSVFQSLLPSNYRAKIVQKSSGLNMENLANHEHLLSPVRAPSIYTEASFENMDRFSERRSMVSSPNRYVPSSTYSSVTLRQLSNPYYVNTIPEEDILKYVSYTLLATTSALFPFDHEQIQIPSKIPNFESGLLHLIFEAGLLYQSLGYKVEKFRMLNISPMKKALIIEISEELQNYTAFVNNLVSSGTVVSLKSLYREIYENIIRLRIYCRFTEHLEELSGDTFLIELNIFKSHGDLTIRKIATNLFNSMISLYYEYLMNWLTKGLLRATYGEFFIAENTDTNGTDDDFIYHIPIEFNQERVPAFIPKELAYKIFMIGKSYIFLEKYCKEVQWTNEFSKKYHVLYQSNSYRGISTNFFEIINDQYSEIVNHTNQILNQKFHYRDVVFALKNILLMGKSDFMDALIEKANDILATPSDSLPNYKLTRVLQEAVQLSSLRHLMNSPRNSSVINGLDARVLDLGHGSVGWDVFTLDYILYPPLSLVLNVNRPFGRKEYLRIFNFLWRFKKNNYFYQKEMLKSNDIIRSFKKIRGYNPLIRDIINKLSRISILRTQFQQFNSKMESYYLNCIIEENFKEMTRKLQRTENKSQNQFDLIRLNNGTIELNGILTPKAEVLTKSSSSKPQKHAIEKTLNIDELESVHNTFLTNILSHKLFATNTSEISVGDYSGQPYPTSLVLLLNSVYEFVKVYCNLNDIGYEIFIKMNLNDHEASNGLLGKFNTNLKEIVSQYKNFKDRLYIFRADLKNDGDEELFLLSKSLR
Assay: cryo-EM structure

B1: Spc97p (natural protein)
chain: MEIKEVDDRAELLRYTNNIPLLGKLVNHQPLWSTNPKLKSFSLEKISAPDQRRVQEALVVKDLLNVLIGLEGTYIRYFNDYEPSDPETPIEFKIAKKMDPSFKTFSRRIVRYGKQYMILTRAYEKWSDTSFGMVLQRFAYEIRRFLEDVYLKTLVERLERDFNKVPNFSIRELEQIINETEVNKQMELLYNIYEEIFREIEERRTNQSSQEDFNNFMDSMKNESSLHLRLMVAFDTTVYPVPKGGAILKIFQQKILENLGDRSSVMFLKKLLNNISQDYCTMLYEWLTQGILNDPYQEFMTYDDLEGKTDNIFDTRDRAWDTQYFIRKDVLLRDCDSEEDKNLLFKMLRTGILLKVVRASLQIPTIPSNSSDITIQEINDFADLMEGSNLELYVDKCYSRANEIFLKLFFQGYDLINVLKHLQQIFLGYQSGHNVLKFLTKNMGELTKHYRNDNNANYDKLLQNFELERQSENPNNLMRQLLMIQFDTETLPQVLSHYLQIYPEVPENNSANDDSDPLMHANNFKNMNAILFDELSKERTGAYHGSNLELYTPKSAIYHLKFDINIPYPLNIIISRTCMIKYQIILRYQLVLQYHSRLLDETWMDLNKTPSWKYRGYSHTVKRRIVRATRVLHAKMNHFIKTIMEYFNQNVIDKEVYSLEKCYRNPTLAVAIQNELEGGLTNIMTNRCLSDLIPLQLQIFDIVYKFCKFIKSMRAKLCQLDPVLYEKHKSGMMKTLNEGYRTNNGGQEDVGYQEDAALELIQKLIEYISNASSIFRKCLINFTQELSTEKFDFYDSSSVDAAGIERVLYSIVPPRSASASSQR
binding result: binds
